B1: 1E8.33 monoclonal antibody (antibody, V domains shown)
VH: EVQLQESGPELVKTGSSVKISCKASGYSFTGYYMHWVKQSQGKSLEWIGYINCYNGATSYNRNFKGKATFTVDTSSSTAYMQFNSLTSGDSAVYYCAIWDYEFHVMDYWGQRTSLTVSS
VL: ENVLTQSPAIMSASLGEKVTMSCRASSSVNYMYWYQQKSDASPKLWIYYTSNLAPGVPARFSGSGSGNSYSLTISSMEGEDADTYYCQQFTSSPWTFGGGTKLEIK
notes: they are variable domains only; also called 1E8.33 mAb; 1E8.33 clone
B2: peptide YNYGTMESYQTEAPR (peptide)
peptide: YNYGTMESYQTEAPR
notes: 15-residue peptide of the proCOL11A1 VAR region; also called the mentioned peptide

How the values were obtained:
[1] = biological target: T1, proCOL5A1 expressed in SAOS-2 osteosarcoma cells (UniProt P20908 38-1838, limits assumed); assay: immunocytochemistry on SAOS-2 cells
T1 construct: Endogenous protein in cells, stained by immunocytochemistry
T1 sequence (P20908 38-1838 limits assumed): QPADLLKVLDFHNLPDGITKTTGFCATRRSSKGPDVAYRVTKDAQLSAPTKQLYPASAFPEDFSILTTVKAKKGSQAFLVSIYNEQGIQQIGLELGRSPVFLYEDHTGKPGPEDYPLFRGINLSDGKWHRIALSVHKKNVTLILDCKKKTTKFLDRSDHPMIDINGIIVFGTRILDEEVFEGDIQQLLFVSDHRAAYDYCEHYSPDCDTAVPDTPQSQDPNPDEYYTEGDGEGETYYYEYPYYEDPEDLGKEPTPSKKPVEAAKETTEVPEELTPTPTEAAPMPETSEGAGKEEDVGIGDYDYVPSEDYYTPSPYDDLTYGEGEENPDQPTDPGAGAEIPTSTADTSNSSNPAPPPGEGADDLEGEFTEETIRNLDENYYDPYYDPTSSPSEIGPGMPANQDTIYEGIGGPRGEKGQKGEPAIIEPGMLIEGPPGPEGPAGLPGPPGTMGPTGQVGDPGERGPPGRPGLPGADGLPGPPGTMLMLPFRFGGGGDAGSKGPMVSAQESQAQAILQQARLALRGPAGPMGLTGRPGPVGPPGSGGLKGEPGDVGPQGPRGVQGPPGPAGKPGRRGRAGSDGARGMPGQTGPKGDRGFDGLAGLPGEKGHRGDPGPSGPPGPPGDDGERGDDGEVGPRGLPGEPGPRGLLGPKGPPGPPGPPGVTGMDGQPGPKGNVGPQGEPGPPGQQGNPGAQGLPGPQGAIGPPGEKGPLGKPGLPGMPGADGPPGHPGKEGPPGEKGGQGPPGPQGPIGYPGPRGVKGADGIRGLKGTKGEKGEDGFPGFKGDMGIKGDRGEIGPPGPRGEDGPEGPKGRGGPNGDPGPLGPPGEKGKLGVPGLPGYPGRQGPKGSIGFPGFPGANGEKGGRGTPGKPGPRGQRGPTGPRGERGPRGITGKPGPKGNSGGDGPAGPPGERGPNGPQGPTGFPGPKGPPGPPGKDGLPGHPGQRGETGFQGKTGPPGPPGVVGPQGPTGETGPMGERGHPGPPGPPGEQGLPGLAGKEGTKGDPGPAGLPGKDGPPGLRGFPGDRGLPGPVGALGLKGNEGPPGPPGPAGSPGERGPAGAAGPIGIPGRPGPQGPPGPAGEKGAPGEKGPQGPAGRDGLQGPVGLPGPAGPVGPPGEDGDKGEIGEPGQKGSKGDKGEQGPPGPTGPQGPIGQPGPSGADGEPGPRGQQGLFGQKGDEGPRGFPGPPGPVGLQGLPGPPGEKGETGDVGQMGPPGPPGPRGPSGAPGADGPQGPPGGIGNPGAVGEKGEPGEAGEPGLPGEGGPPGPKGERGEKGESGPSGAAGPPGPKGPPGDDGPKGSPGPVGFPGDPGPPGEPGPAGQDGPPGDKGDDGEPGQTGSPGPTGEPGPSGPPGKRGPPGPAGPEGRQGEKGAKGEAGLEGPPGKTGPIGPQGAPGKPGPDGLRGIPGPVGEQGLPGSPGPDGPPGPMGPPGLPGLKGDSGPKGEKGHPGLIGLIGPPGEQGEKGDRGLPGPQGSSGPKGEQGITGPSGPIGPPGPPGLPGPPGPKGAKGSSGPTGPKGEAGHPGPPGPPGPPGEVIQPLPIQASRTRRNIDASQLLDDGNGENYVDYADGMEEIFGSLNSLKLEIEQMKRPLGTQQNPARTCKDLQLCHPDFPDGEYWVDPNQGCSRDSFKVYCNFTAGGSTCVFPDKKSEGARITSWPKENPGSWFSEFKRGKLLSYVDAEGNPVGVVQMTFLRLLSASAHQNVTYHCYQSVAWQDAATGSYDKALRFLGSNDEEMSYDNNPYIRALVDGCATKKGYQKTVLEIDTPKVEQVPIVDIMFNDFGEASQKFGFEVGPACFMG

[2] = biological target: B1; assay: peptide blocking of 1E8.33 in Western blot of A204 cells
Experimental: FIG. 8: 1E8.33 mAb blocking test for locating the epitope, performed by means of Western blot of A204 cells. The detection was performed with a mixture of the antibody and different peptides. Lane 1: negative control without antibody. Lane 2: FQEYNYG. Lane 3: […]. Lane 4: […]. Lane 5: […]. Lane 6: […]. Lane 7: positive control with the unblocked 1E8.33 mAb. Complete blocking was observed only in lane 6.

binding result [1] | binding result [2] | Binder
no binding |  | B1
 | binds | B2

Source: patent US20150362496A1 (ONCOMATRYX BIOPHARMA S L, published 2015)
